Source: the supplement of paper PMC11502859

These substances were tested on HEK293T (assay: median enrichment of reporter reads in eGFP-reduced (low/intermediate) vs eGFP-high sorted cells (eGFP-extension fusion abundance) (ratio); higher = stronger loss of eGFP-fusion protein abundance (more destabilising extension)).
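Note: lentiviral eGFP-IRES-mCherry reporter pool sorted by FACS 96 h post-transduction, gated on mCherry-high cells, Illumina read counts normalized per million, median across four biological replicates.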

Substance	median enrichment
RNKKFWVLSS [RGCC]	1.68
RNLNGHYKLSNST [ARMC4]	1.99
RNQVASCPLLRGNPRPLASLPTYKALSQGIAGPRCLDPGCASPSLCSPWKGR [HSPBP1]	7.21
RNRGLNVFRVRMP [PARD6B]	4.57
RPCAEALPGFTQLMDSSVLTLSTTPFTSLFDFRSYRHCLR [GINS1]	7.78
RPETECQPKESSCKTVIYCEYLHHMGSLMVNIFLQSC [TXK]	12.5
RPGAQPCAAEDSRDWRRPRPATAGARGHLPGLLTLSPHWEWAPRGRASAVAASAPGRAGPPRGPVLVFCRRTQPPPIPDSSLG [TMUB1]	6.53
RPLLRVCPAPFHQ [DYRK4]	1.43
RPPAPNSIIYYGAAPPGWPDPWALGLWILVPCLENSPPLAPHCSL [CYTH2]	8.4
RPPLSPECNKHQIPCVK [POLR2I]	3.52
RPQMAGTCSSDERVLRRTPPSSVLEAGRLGSRRGQRHLLSVLGCKQLCVSGDTSHHVPGN [AIRE]	7.82
RPRPGPALPPGAPTCNKCSEAGK [CYBA]	0.134
RPSGPPLPLGQGNQLLRDFSCLEGAVIAPPHCPTVLLGL [FBXW4]	4.69
RPSTKGPPSWCSITSFLKGISFFTTLS [FANCE]	13.8
RPSTVPGP [HYKK]	0.522
RPWPRAQACLGWALPLTTQGGPGPLGFLPWGQQPPAGLVGSGFLDFLMKRGYL [KCNH4]	4.41
RQADEGATLTQSPQKAKCDSQVSSLTQR [PCARE]	0.302
RQEGPSGRDGPGGGQMGRCGRHVIDSTEGLSCVPPTLPWTDSEGPPGTSAKAG [KCNF1]	5.07
RQEGRPHCFSHPFPLLPMGRGPGCRKSSYLQELHHNLEGSSWSCEFSLYSVTIPDHLIKMLPPSIGFIELVTS [NME1]	9.63
RQGPPLFWTP [CDHR2]	1.05

Substance	median enrichment
RQGRLRGQAGGQQLQEGSDNSPPAWAHLLLLLLLGSAPQTRLWPPSQCPVTSPE [CRACR2B]	9.74
RQLQELNSLAPEELAAQEAKLAF [TMEM81]	0.0302
RQRPPAPALPQPSY [SART1]	0.558
RQRRD [PVR]	0.306
RQSWCCRPIGRSWKASGCVPAMSWHWQSWRRRRANPRAQRTLRKPAGAESCVGHPTRHPSSLRRPVGRQGSRGFALLLSSRVM [RAB15]	3.13
RQTSQSSQPGLHPPWLPPAHMAPSTGLQPGAREL [HOOK2]	11.1
RQWLSCDDRQNGGEICLWEVEP [FBXO45]	6.14
RRAGGGWWPRRQHTTRLHTCMLSPRGNGLYIAHFTLFRRHFIPALVLLEGLSRQSSSCSASVCDSPPSTPMALSLGDSSSPRK [PRKAB1]	5.36
RRGEGRPAVDSLILGRSLGCAAISFCECANTKLSRAKL [SLC25A25]	8.98
RRINLQRSRQDDLAAWGLLSPRNSHVGFPLPGWPLDLSSKPFLTSS [CHI3L2]	6.12
RRKCLLPW [PKD1L2]	1.93
RRKEFCKETIRFVKDILHNI [PPP1CB]	7.66
RRLARKMPRGG [TRAPPC3L]	5.87
RRLSISRDMVLTQQFPVMAKCSI [IL13RA2]	6.6
RRPRAPHLSRSLMPQGAQ [SLC44A2]	1.11
RRPVPR [TBC1D24]	1.51
RRR [Arg03]	0.663
RRRR [Arg04]	0.344
RRRRR [Arg05]	0.5
RRRRRR [Arg06]	0.898

Substance	median enrichment
RRRRRRGRAAGGTAQATQGRPLRPGGQGGRPASGDRLPPGLWQDVPSEGYFEEPPGPGDREAPVSSMNALPRTQARASGVHSE [MSANTD1]	0.682
RRRRRRR [Arg07]	0.889
RRRRRRRR [Arg08]	1.49
RRRRRRRRR [Arg09]	1.11
RRRRRRRRRR [Arg10]	0.77
RRSPVCPVKTEIN [TM9SF2]	0.793
RRTACSDQRAQRPEDKSGGDSMGMGVGCLRERTHGLGRGERCMGITFARAAYLKVTVSSGTAGDRYLLLQEINYPENSTQPVT [LEXM]	13.9
RRTHRQ [ZNF397]	1.02
RRVQRTCSSLGEEAPLKNSPPGTQLQPSGQAAGRRQRQREETLALTPSRVVIFGFAHHPGLPDGTLL [C12orf49]	11.7
RSAAIRWKPLEPEAAA [FXYD6]	12
RSC [DCK]	0.415
RSCAAQSQTPAPTTYFCYTQEHFRKLSQLIFCFSSMSILSVSHFEDFFSLLYLCFSFFGFYFVVLSVIFNVPKICTCSIKNVV [HOOK3]	3.09
RSGLFQ [IQCF1]	0.394
RSGLRRRRHRGE [Degron APPBP2]	6.28
RSGTGRLLIEIHLLGGTGFP [MRNIP]	8.41
RSHFCQMLPSTINALGGRRGRQ [ETHE1]	12.6
RSHL [BBOX1]	11.7
RSHTACSFGCD [EIF2B5]	0.722
RSKDNGVFFL [USP44]	1.94
